B1: ZNF263 (parent)
chain: KPYKCTLCGENFSHRSNLIRHQRI
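Note: lentivirally expressed fusions sorted by FACS into six bins by GFP to DsRed ratio, PSI derived from sequencing read proportions per bin multiplied by bin number.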

The variants in the data set derive from B1. The data set can be described thus: protein stability index of a GFP-peptide fusion (GPS, HEK-293T) (PSI 1-6); higher = more stable. To be noted: c terminus: a fixed tail appended.
For KPYKCTLRGENFSHRSNLIRHQRI, the protein stability index is 1.73.
The same measure for KPYKCTLHGENFSHRSNLIRHQRI: 2.1; for KPYKCTLYGENFSHRSNLIRHQRI: 2.41.
With KPYKCTLMGENFSHRSNLIRHQRI, the protein stability index came to 1.83.
Next, KPYKCTLLGENFSHRSNLIRHQRI: 2.44.
Next, KPYKCTLFGENFSHRSNLIRHQRI: 2.11; KPYKCTLGGENFSHRSNLIRHQRI: 2.45; KPYKCTLVGENFSHRSNLIRHQRI: 2.47.
Next, KPYKCTLIGENFSHRSNLIRHQRI: 2.58.
As to KPYKCTLWGENFSHRSNLIRHQRI, the protein stability index came to 1.88.
The same measure for KPYKCTLDGENFSHRSNLIRHQRI: 2.62; for KPYKCTLKGENFSHRSNLIRHQRI: 3.61; for KPYKCTLAGENFSHRSNLIRHQRI: 2.34.
Next, KPYKCTLEGENFSHRSNLIRHQRI: 2.48.
Take KPYKCTLPGENFSHRSNLIRHQRI: the protein stability index stood at 2.45.
Next, KPYKCTLTGENFSHRSNLIRHQRI: 2.69; KPYKCTLNGENFSHRSNLIRHQRI: 2.89; KPYKCTLQGENFSHRSNLIRHQRI: 2.74.
The same measure for KPYKCTLSGENFSHRSNLIRHQRI: 4.1; for KPYKYTLCGENFSHRSNLIRHQRI: 1.96; for KPYKCTYCGENFSHRSNLIRHQRI: 3.25.
As for KPYKCTICGENFSHRSNLIRHQRI, the protein stability index worked out at 3.06.
Next, KPYKCTSCGENFSHRSNLIRHQRI: 2.68; KPYKCTACGENFSHRSNLIRHQRI: 3.07.
For the variant KPYKCTWCGENFSHRSNLIRHQRI, the protein stability index was found to be 2.69.
Next, KPYKCTCCGENFSHRSNLIRHQRI: 3.9; KPYKCTVCGENFSHRSNLIRHQRI: 3.37.
Next, KPYKCTFCGENFSHRSNLIRHQRI: 2.51.
Next, KPYKCTRCGENFSHRSNLIRHQRI: 2.28.
Regarding KPYKCTGCGENFSHRSNLIRHQRI, the protein stability index amounted to 2.18.
KPYKCTKCGENFSHRSNLIRHQRI: the protein stability index stood at 3.22.
Next, KPYKCTPCGENFSHRSNLIRHQRI: 1.69; KPYKCTQCGENFSHRSNLIRHQRI: 3.02; KPYKCTDCGENFSHRSNLIRHQRI: 3.02.
The same measure for KPYKCTHCGENFSHRSNLIRHQRI: 3.88; for KPYKCTNCGENFSHRSNLIRHQRI: 2.78; for KPYKCTMCGENFSHRSNLIRHQRI: 3.12.
The same measure for KPYKCTTCGENFSHRSNLIRHQRI: 2.51; for KPYKCTECGENFSHRSNLIRHQRI: 3.63; for KPYKCTLCAENFSHRSNLIRHQRI: 2.19.
For the variant KPYKCTLCIENFSHRSNLIRHQRI, the protein stability index was found to be 4.
Next, KPYKCTLCPENFSHRSNLIRHQRI: 1.67.
The same measure for KPYKCTLCVENFSHRSNLIRHQRI: 2.14; for KPYKCTLCQENFSHRSNLIRHQRI: 2.79.
In the case of KPYKCTLCRENFSHRSNLIRHQRI, the protein stability index worked out at 2.5.
Next, KPYKCTLCNENFSHRSNLIRHQRI: 2.36; KPYKCTLCTENFSHRSNLIRHQRI: 1.39.
Next, KPYKCTLCHENFSHRSNLIRHQRI: 1.81; KPYKCTLCCENFSHRSNLIRHQRI: 2.16; KPYKCTLCLENFSHRSNLIRHQRI: 1.16.
The same measure for KPYKCTLCFENFSHRSNLIRHQRI: 2.43; for KPYKCTLCKENFSHRSNLIRHQRI: 2.05; for KPYKCTLCMENFSHRSNLIRHQRI: 2.38.
Consider KPYKCTLCEENFSHRSNLIRHQRI, for which the protein stability index amounted to 2.29.
As to KPYKCTLCWENFSHRSNLIRHQRI, the protein stability index worked out at 1.62.
Take KPYKCTLCSENFSHRSNLIRHQRI: the protein stability index came to 2.38.
The same measure for KPYKCTLCDENFSHRSNLIRHQRI: 2.01; for KPYKCTLCYENFSHRSNLIRHQRI: 2.61.
Next, KPYKCDLCGENFSHRSNLIRHQRI: 2.7.
Next, KPYKCMLCGENFSHRSNLIRHQRI: 2.08; KPYKCILCGENFSHRSNLIRHQRI: 2.38; KPYKCNLCGENFSHRSNLIRHQRI: 2.6.
With KPYKCLLCGENFSHRSNLIRHQRI, the protein stability index was determined as 2.21.
Next, KPYKCCLCGENFSHRSNLIRHQRI: 2.1; KPYKCPLCGENFSHRSNLIRHQRI: 2.42; KPYKCSLCGENFSHRSNLIRHQRI: 3.17.
For the variant KPYKCRLCGENFSHRSNLIRHQRI, the protein stability index is 2.96.
The same measure for KPYKCWLCGENFSHRSNLIRHQRI: 2.53.
Next, KPYKCYLCGENFSHRSNLIRHQRI: 1.98; KPYKCELCGENFSHRSNLIRHQRI: 2.9.
The same measure for KPYKCHLCGENFSHRSNLIRHQRI: 3.1; for KPYKCKLCGENFSHRSNLIRHQRI: 2.69.
For the variant KPYKCALCGENFSHRSNLIRHQRI, the protein stability index came out at 2.43.
The same measure for KPYKCGLCGENFSHRSNLIRHQRI: 2.67.
Next, KPYKCQLCGENFSHRSNLIRHQRI: 2.21.
Consider KPYKCFLCGENFSHRSNLIRHQRI, for which the protein stability index came out at 2.61.
As for KPYKCVLCGENFSHRSNLIRHQRI, the protein stability index turned out to be 2.07.
KPYKCTLCGMNFSHRSNLIRHQRI: the protein stability index turned out to be 2.67.
The same measure for KPYKCTLCGDNFSHRSNLIRHQRI: 2.25; for KPYKCTLCGCNFSHRSNLIRHQRI: 1.94.
As for KPYKCTLCGGNFSHRSNLIRHQRI, the protein stability index is 3.09.
Next, KPYKCTLCGTNFSHRSNLIRHQRI: 2.06; KPYKCTLCGRNFSHRSNLIRHQRI: 2.97; KPYKCTLCGHNFSHRSNLIRHQRI: 2.71.
Next, KPYKCTLCGKNFSHRSNLIRHQRI: 3.4; KPYKCTLCGSNFSHRSNLIRHQRI: 2.61.
As for KPYKCTLCGQNFSHRSNLIRHQRI, the protein stability index is 2.98.
The same measure for KPYKCTLCGVNFSHRSNLIRHQRI: 2.56; for KPYKCTLCGPNFSHRSNLIRHQRI: 2.09.
Next, KPYKCTLCGINFSHRSNLIRHQRI: 2.35.
The same measure for KPYKCTLCGLNFSHRSNLIRHQRI: 1.88.
On to KPYKCTLCGANFSHRSNLIRHQRI, for which the protein stability index was 2.82.
Next, KPYKCTLCGFNFSHRSNLIRHQRI: 2.36; KPYKCTLCGNNFSHRSNLIRHQRI: 2.24.

(Values after the supplement of paper PMC10567573.)
